Consider ten sequences from the supplement of paper PMC11316812.

± gives the standard deviation of the averaged measurements.

The subject of one series is hTERT-HMEC. Kind of series: percentage of EdU-negative (G0-arrested) nuclei per well, 72 h; higher = more G0 arrest. Particulars: reference: sequence is the full UniProt precursor, the tested protein was the secreted form or ectodomain.
The next series has as its system MCF7. The description is as above. The conditions noted are these: reference: sequence is the full UniProt precursor, the tested protein was the secreted form or ectodomain.
The mark [1] stands for this setting: protein concentration 0.0225 µM.
Where [2] appears, read: protein concentration 0.0107825 µM.
Where [3] appears, read: protein concentration 0.107825 µM.
The mark [4] stands for this setting: protein concentration 0.019925 µM.
[5] abbreviates: protein concentration 0.19925 µM.
Setting [6] is: protein concentration 0.03125 µM.
Where [7] appears, read: protein concentration 0.3125 µM.
[8] abbreviates: protein concentration 0.0165525 µM.
The mark [9] stands for this setting: protein concentration 0.165525 µM.
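Also: secreted proteins added to cultured cells, EdU pulse at the end, nuclei found by Hoechst imaging, EdU status from nuclear versus surrounding ring intensity ratio, PBS as neutral control.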

As for “MTGLCGYSAPDMRGLRLIMIPVELLLCYLLLHPVDATSYGKQTNVLMHFPLSLESQTPSSDPLSCQFLHPKSLPGFSHMAPLPKFLVSLALRNALEEAGCQADVWALQLQLYRQGGVNATQVLIQHLRGLQKGRSTERNVSVEALASALQLLAREQQSTGRVGRSLPTEDCENEKEQAVHNVVQLLPGVGTFYNLGTALYYATQNCLGKARERGRDGAIDLGYDLLMTMAGMSGGPMGLAISAALKPALRSGVQQLIQYYQDQKDANISQPETTKEGLRAISDVSDLEETTTLASFISEVVSSAPYWGWAIIKSYDLDPGAGSLEI”, the “percentage of EdU-negative” value stood at 5.166 ± 0.011% in the series on hTERT-HMEC (setting [1]), 19.7 ± 0.93% in the series with hTERT-HMEC (protein concentration 0.225 µM), 26.5 ± 0.29% in the series with MCF7 (setting [1]) and 30.7 ± 0.48% in the series on MCF7 (protein concentration 0.225 µM).
“MTILFLTMVISYFGCMKAAPMKEANIRGQGGLAYPGVRTHGTLESVNGPKAGSRGLTSLADTFEHVIEELLDEDQKVRPNEENNKDADLYTSRVMLSSQVPLEPPLLFLLEEYKNYLDAANMSMRVRRHSDPARRGELSVCDSISEWVTAADKKTAVDMSGGTVTVLEKVPVSKGQLKQYFYETKCNPMGYTKEGCRGIDKRHWNSQCRTTQSYVRALTMDSKKRIGWRFIRIDTSCVCTLTIKRGR”: the “percentage of EdU-negative” value in the series on hTERT-HMEC (setting [2]) came out at 5.167 ± 0.044%; with hTERT-HMEC (setting [3]), 7.06 ± 0.31%; with MCF7 (setting [2]), 26.6 ± 0.45%; in the series on MCF7 (setting [3]), 28.7 ± 1.2%.
Consider “MTILGTTFGMVFSLLQVVSGESGYAQNGDLEDAELDDYSFSCYSQLEVNGSQHSLTCAFEDPDVNITNLEFEICGALVEVKCLNFRKLQEIYFIETKKFLLIGKSNICVKVGEKSLTCKKIDLTTIVKPEAPFDLSVVYREGANDFVVTFNTSHLQKKYVKVLMHDVAYRQEKDENKWTHVNLSSTKLTLLQRKLQPAAMYEIKVRSIPDHYFKGFWSEWSPSYYFRTPEINNSSGEMDPILLTISILSFFSVALLVILACVLWKKRIKPIVWPSLPDHKKTLEHLCKKPRKNLNVSFNPESFLDCQIHRVDDIQARDEVEGFLQDTFPQQLEESEKQRLGGDVQSPNCPSEDVVITPESFGRDSSLTCLAGNVSACDAPILSSSRSLDCRESGKNGPHVYQDLLLSLGTTNSTLPPPFSLQSGILTLNPVAQGQPILTSLGSNQEEAYVTMSSFYQNQ”, for which the “percentage of EdU-negative” value in the series with hTERT-HMEC (setting [4]) was 5.3 ± 0.72%; with hTERT-HMEC (setting [5]) it was 5.96 ± 0.062%; in the series on MCF7 (setting [4]), 28.1 ± 1.4%; in the series on MCF7 (setting [5]) it was 27.6 ± 2.4%.
Turning to “MTLFPVLLFLVAGLLPSFPANEDKDPAFTALLTTQTQVQREIVNKHNELRRAVSPPARNMLKMEWNKEAAANAQKWANQCNYRHSNPKDRMTSLKCGENLYMSSASSSWSQAIQSWFDEYNDFDFGVGPKTPNAVVGHYTQVVWYSSYLVGCGNAYCPNQKVLKYYYVCQYCPAGNWANRLYVPYEQGAPCASCPDNCDDGLCTNGCKYEDLYSNCKSLKLTLTCKHQLVRDSCKASCNCSNSIY”, the “percentage of EdU-negative” value with hTERT-HMEC (setting [1]) came out at 4.68 ± 0.23%; in the series with hTERT-HMEC (protein concentration 0.225 µM), 4.83 ± 0.81%; in the series with MCF7 (setting [1]), 24.2 ± 0.4%; in the series on MCF7 (protein concentration 0.225 µM), 27.5 ± 3%.
The like results for “MTLILTSLLFFGLSLGPRTRVQAENLLKPILWAEPGPVITWHNPVTIWCQGTLEAQGYRLDKEGNSMSRHILKTLESENKVKLSIPSMMWEHAGRYHCYYQSPAGWSEPSDPLELVVTAYSRPTLSALPSPVVTSGVNVTLRCASRLGLGRFTLIEEGDHRLSWTLNSHQHNHGKFQALFPMGPLTFSNRGTFRCYGYENNTPYVWSEPSDPLQLLVSGVSRKPSLLTLQGPVVTPGENLTLQCGSDVGYIRYTLYKEGADGLPQRPGRQPQAGLSQANFTLSPVSRSYGGQYRCYGAHNVSSEWSAPSDPLDILIAGQISDRPSLSVQPGPTVTSGEKVTLLCQSWDPMFTFLLTKEGAAHPPLRLRSMYGAHKYQAEFPMSPVTSAHAGTYRCYGSRSSNPYLLSHPSEPLELVVSGATETLNPAQKKSDSKTAPHLQDYTVENLIRMGVAGLVLLFLGILLFEAQHSQRSPPRCSQEANSRKDNAPFRVVEPWEQI” were, in that order, 4.68 ± 0.17%, 5.06 ± 0.98%, 28.3 ± 0.36% and 29 ± 2.8%.
In the case of “MTLLLLPLLLASLLASCSCNKANKHKPWIEAEYQGIVMENDNTVLLNPPLFALDKDAPLRYAGEICGFRLHGSGVPFEAVILDKATGEGLIRAKEPVDCEAQKEHTFTIQAYDCGEGPDGANTKKSHKATVHVRVNDVNEFAPVFVERLYRAAVTEGKLYDRILRVEAIDGDCSPQYSQICYYEILTPNTPFLIDNDGNIENTEKLQYSGERLYKFTVTAYDCGKKRAADDAEVEIQVKPTCKPSWQGWNKRIEYAPGAGSLALFPGIRLETCDEPLWNIQATIELQTSHVAKGCDRDNYSERALRKLCGAATGEVDLLPMPGPNANWTAGLSVHYSQDSSLIYWFNGTQAVQVPLGGPSGLGSGPQDSLSDHFTLSFWMKHGVTPNKGKKEEETIVCNTVQNEDGFSHYSLTVHGCRIAFLYWPLLESARPVKFLWKLEQVCDDEWHHYALNLEFPTVTLYTDGISFDPALIHDNGLIHPPRREPALMIGACWTEEKNKEKEKGDNSTDTTQGDPLSIHHYFHGYLAGFSVRSGRLESREVIECLYACREGLDYRDFESLGKGMKVHVNPSQSLLTLEGDDVETFNHALQHVAYMNTLRFATPGVRPLRLTTAVKCFSEESCVSIPEVEGYVVVLQPDAPQILLSGTAHFARPAVDFEGTNGVPLFPDLQITCSISHQVEAKKDESWQGTVTDTRMSDEIVHNLDGCEISLVGDDLDPERESLLLDTTSLQQRGLELTNTSAYLTIAGVESITVYEEILRQARYRLRHGAALYTRKFRLSCSEMNGRYSSNEFIVEVNVLHSMNRVAHPSHVLSSQQFLHRGHQPPPEMAGHSLASSHRNSMIPSAATLIIVVCVGFLVLMVVLGLVRIHSLHRRVSGAGGPPGASSDPKDPDLFWDDSALTIIVNPMESYQNRQSCVTGAVGGQQEDEDSSDSEVADSPSSDERRIIETPPHRY [Q9BQT9]”, the “percentage of EdU-negative” value with hTERT-HMEC (setting [1]) was found to be 4.44 ± 0.21%; in the series on hTERT-HMEC (protein concentration 0.225 µM), 5.534 ± 0.019%; in the series with MCF7 (setting [1]), 25.2 ± 1.4%; with MCF7 (protein concentration 0.225 µM) it was 26.1 ± 0.34%.
On to “MTLLPGLLFLTWLHTCLAHHDPSLRGHPHSHGTPHCYSAEELPLGQAPPHLLARGAKWGQALPVALVSSLEAASHRGRHERPSATTQCPVLRPEEVLEADTHQRSISPWRYRVDTDEDRYPQKLAFAECLCRGCIDARTGRETAALNSVRLLQSLLVLRRRPCSRDGSGLPTPGAFAFHTEFIHVPVGCTCVLPRSV [Q9P0M4]”, for which the “percentage of EdU-negative” value was determined as 5.54 ± 0.085% with hTERT-HMEC (setting [6]), 5.3 ± 0.055% in the series with hTERT-HMEC (setting [7]), 26.7 ± 2.1% with MCF7 (setting [6]) and 26.1 ± 1.7% in the series with MCF7 (setting [7]).
“MTLTLSVLICLGLSVGPRTCVQAGTLPKPTLWAEPASVIARGKPVTLWCQGPLETEEYRLDKEGLPWARKRQNPLEPGAKAKFHIPSTVYDSAGRYRCYYETPAGWSEPSDPLELVATGFYAEPTLLALPSPVVASGGNVTLQCDTLDGLLTFVLVEEEQKLPRTLYSQKLPKGPSQALFPVGPVTPSCRWRFRCYYYYRKNPQVWSNPSDLLEILVPGVSRKPSLLIPQGSVVARGGSLTLQCRSDVGYDIFVLYKEGEHDLVQGSGQQPQAGLSQANFTLGPVSRSHGGQYRCYGAHNLSPRWSAPSDPLDILIAGLIPDIPALSVQPGPKVASGENVTLLCQSWHQIDTFFLTKEGAAHPPLCLKSKYQSYRHQAEFSMSPVTSAQGGTYRCYSAIRSYPYLLSSPSYPQELVVSGPSGDPSLSPTGSTPTPGPEDQPLTPTGLDPQSGLGRHLGVVTGVSVAFVLLLFLLLFLLLRHRHQSKHRTSAHFYRPAGAAGPEPKDQGLQKRASPVADIQEEILNAAVKDTQPKDGVEMDAPAAASEAPQDVTYAQLHSLTLRREATEPPPSQEREPPAEPSIYAPLAIH”: the “percentage of EdU-negative” value in the series with hTERT-HMEC (setting [1]) turned out to be 5.56 ± 0.57%; in the series with hTERT-HMEC (protein concentration 0.225 µM), 4.64 ± 0.082%; with MCF7 (setting [1]), 26.64 ± 0.18%; in the series with MCF7 (protein concentration 0.225 µM), 24.8 ± 1.6%.
For the sequence “MTMETQMSQNVCPRNLWLLQPLTVLLLLASADSQAAAPPKAVLKLEPPWINVLQEDSVTLTCQGARSPESDSIQWFHNGNLIPTHTQPSYRFKANNNDSGEYTCQTGQTSLSDPVHLTVLSEWLVLQTPHLEFQEGETIMLRCHSWKDKPLVKVTFFQNGKSQKFSHLDPTFSIPQANHSHSGDYHCTGNIGYTLFSSKPVTITVQVPSMGSSSPMGIIVAVVIATAVAAIVAAVVALIYCRKKRISANSTDPVKAAQFEPPGRQMIAIRKRQLEETNNDYETADGGYMTLNPRAPTDDDKNIYLTLPPNDHVNSNN”, the “percentage of EdU-negative” value in the series on hTERT-HMEC (setting [8]) turned out to be 4.6 ± 0.053%; in the series with hTERT-HMEC (setting [9]), 5.2 ± 0.11%; in the series on MCF7 (setting [8]) it was 26.5 ± 1.3%; with MCF7 (setting [9]) it was 25.5 ± 0.26%.
With “MTPALTALLCLGLSLGPRTRVQAGPFPKPTLWAEPGSVISWGSPVTIWCQGSLEAQEYQLDKEGSPEPLDRNNPLEPKNKARFSIPSMTQHHAGRYRCHYYSSAGWSEPSDPLELVMTGFYNKPTLSALPSPVVASGGNMTLRCGSQKGYHHFVLMKEGEHQLPRTLDSQQLHSGGFQALFPVGPVTPSHRWRFTCYYYYTNTPRVWSHPSDPLEILPSGVSRKPSLLTLQGPVLAPGQSLTLQCGSDVGYDRFVLYKEGERDFLQRPGQQPQAGLSQANFTLGPVSPSHGGQYRCYGAHNLSSEWSAPSDPLNILMAGQIYDTVSLSAQPGPTVASGENVTLLCQSRGYFDTFLLTKEGAAHPPLRLRSMYGAHKYQAEFPMSPVTSAHAGTYRCYGSYSSNPHLLSFPSEPLELMVSGHSGGSSLPPTGPPSTPASHAKDYTVENLIRMGMAGLVLVFLGILLFEAQHSQRNPQDAAGR [Q6PI73]”, the “percentage of EdU-negative” value in the series with hTERT-HMEC (setting [1]) was found to be 5.69 ± 0.33%; in the series on hTERT-HMEC (protein concentration 0.225 µM), 5.12 ± 0.84%; in the series on MCF7 (setting [1]) it was 22.6 ± 0.32%; with MCF7 (protein concentration 0.225 µM) it was 24.9 ± 4.2%.
